Source: the DeepSol protein solubility set

Assay: soluble on expression in E. coli; label from the status in PepcDB or PDB records

Row | Sequence | soluble on expression in E. coli
1 | GVACKPKEKPSSATSLTDDALMDTVQRRTFNYFWDAAEPNSGLARERYHMDGEYPAGGPEIVTSGGSGFGIMAILAGIDRGYVSREEGLRRMEKIVGFLEKADRFKGAYPHWWNGETGHVQPFGQKDNGGDLVETAFLMQGLLAVHQYYAEGSAEEKKLAGRIDKLWREVDWNWYRHGGQNVLYWHWSPEYGWEMNFPVHGYNECLIMYILAAASPTHGVPAAVYHEGWAQNGAIVSPHKVEGIELHLRYQGGEAGPLFWAQYSFLGLDPVGLKDEYCPSYFNEMRNLTLVNREYCIRNPKHYKGYGPDCWGLTASYSVDGYAAHGPLERDDRGVISPTAALSSIVYTPDQSLQVMHHLYEMGDKVFGPYGFYDAFSETADWYPKRYLAIDQGPIAVMIENYRTGLLWKLFMSHPDVQNGLKKLGFNVKK | soluble
2 | GVRFAFGPTVDFHFGENYAFSTGAWYLSSRAGLSQSVPGLTYKEIVSLQSVQIPVTFKAYTNEIATNMKLYFQLGGLATFNFYEKFKESTPSNSSYDDKYNVFDVSLYVGAGVSYKIGESNALFGGFYYSRGLMNMLDGSTIPGTSDRYKKAAKYNNDLVGLEVGITF | not soluble
3 | GYALTEGEDYLVLDKPIPQEQSGKIEVLEFFGYFCVHCHHFDPLLLKLGKALPSDAYLRTEHVVWQPEMLGLARMAAAVNLSGLKYQANPAVFKAVYEQKIRLENRSVAGKWALSQKGFDGKKLMRAYDSPEAAAAALKMQKLTEQYRIDSTPTVIVGGKYRVIFNNGFDGGVHTIKELVAKVREERKRQTPAVQK | soluble
4 | GYITVGNENSTPIELYYEDQGSGQPVVLIHGYPLDGHSWERQTRELLAQGYRVITYDRRGFGGSSKVNTGYDYDTFAADLHTVLETLDLRDVVLVGFSMGTGELARYVARYGHERVAKLAFLASLEPFLVQRDDNPEGVPQEVFDGIEAAAKGDRFAWFTDFYKNFYNLDENLGSRISEQAVTGSWNVAIGSAPVAAYAVVPAWIEDFRSDVEAVRAAGKPTLILHGTKDNILPIDATARRFHQAVPEADYVEVEGAPHGLLWTHADEVNAALKTFLAK | soluble
5 | GYWGCKDLNSVFVYANQAYGELIGLKRAEDCIGRTDFEMPSPTAACAAEFQQQDRYVIETGHSVKVLDIHPYPDGHWHAHIFTKTPWRDSQGKIQGTIFFGQDLT | not soluble
6 | HAIFEREGNNLYCEVPINFTMAALGGEIEVPTLDGRVNLKIPGETQTGKLFRMRGKGVKSVRGGAQGDLLCRVVVETPVGLNEKQKQLLKELQESFGGPTGENN | not soluble
7 | HDTILFFSNKGKVYRAKGYEIPEYGRTAKGIPIINLLEVEKGEWINAIIPVTE | not soluble
8 | HGDHMHNHDTKMDTMSKDMMSMEKIVVPVQQLDPQNGNKDVGTVEITESAYGLVFTPKLHDLAHGLHGFHIHEKPSCEPKEKDGKLVAGLGAGGHWDPKQTQKHGYPWSDDAHMGDLPALFVMHDGSATTPVLAPRLKKLAEVKGHSLMIHAGGDNHSDHPAPLGGGGPRMACGVIK | soluble
9 | HHHHHHSSGLVPRGSHMRNYCTKTFGSAFSVTVVPTLKDNFSYLINDHTTHTLAAVDVNADYKPILTYIEEHLKQQGNADVTYTFSTILSTHKHWDHSGGNAKLKAELEAMNSTVPVVVVGGANDSIPAVTKPVREGDRVQVGDLSVEVIDAPCHTRGHVLYKVQHPQHPNDGVALFTGDTMFIAGIGAFFEGDEKDMCRAMEKVYHIHKGNDYALDKVTFIFPGHEYTSGFMTFSEKTFPDRASDDLAFIQAQRAKYAAAVKTGDPSVPSSLAEEKRQNLFLRVADPAFVAKMNQGNAHALMMYLYNACD | soluble
10 | HHHHHHSSGLVPRGSHMTAQTVTGAVAAAQLGATLPHEHVIFGYPGYAGDVTLGPFDHAAALASCTETARALLARGIQTVVDATPNGCGRNPAFLREVSEATGLQILCATGFYYEGGGATTYFKFRASLGDAESEIYEMMRTEVTEGIAGTGIRAGVIKLASSRDAITPYEQLFFRAAARVQRETGVPIITHTQEGQQGPQQAELLTSLGADPARIMIGHMDGNTDPAYHRETLRHGVSIAFDRIGLQGMVGTPTDAERLSVLTTLLGEGYADRLLLSHDSIWHWLGRPPAIPEAALPAVKDWHPLHISDDILPDLRRRGITEEQVGQMTVGNPARLFG | soluble
11 | HMKIAIFGTVGAGKSTISAEISKKLGYEIFKEPVEENPYFEQYYKDLKKTVFKMQIYMLTARSKQLKQAKNLENIIFDRTLLEDPIFMKVNYDLNNVDQTDYNTYIDFYNNVVLENLKIPENKLSFDIVIYLRVSTKTAISRIKKRGRSEELLIGEEYWETLNKNYEEFYKQNVYDFPFFVVDAELDVKTQIELIMNKLNSIKNPN | soluble
12 | HMNFKMEHQNKRSPLHAAAEAGHVDICHMLVQAGANIDTCSEDQRTPLMEAAENNHLEAVKYLIKAGALVDPKDAEGSTCLHLAAKKGHYEVVQYLLSNGQMDVNCQDDGGWTPMIWATEYKHVDLVKLLLSKGSDINIRDNEENICLHWAAFSGCVDIAEILLAAKCDLHAVNIHGDSPLHIAARENRYDCVVLFLSRDSDVTLKNKEGETPLQCASLNSQVWSALQMSKALQDSA | soluble
13 | HMSSGSAGLSSLHRTYSQDCSFKNSMYHVGDYVYVEPAEANLQPHIVCIERLWEDSAGEKWLYGCWFYRPNETFHLATRKFLEKEVFKSDYYNKVPVSKILGKCVVMFVKEYFKLCPENFRDEDVYVCESRYSAKTKSFKKIKLWTMPVSSVRFVPRDVPLPVVRVASVFANTD | soluble
14 | HPEKCSECSYSCSSKAALRIHERIHCTDRPFKCNYCSFDTKQPSNLSKHMKKFHGDM | soluble
15 | HRIPAYTLTDQNGDAFKSTAYDSSFKVYDFVFTRCGSICPEMTTQMIRVQEAFKHDKDVVLISLTVDPEHDSSEVLQRYAKQYNAIPGKWYFLTGEKDTIYTLGQRQFFLTAKQNEEDLTDFLHSERIVLVDKNGWIRGYYTGTNEKDVDRLITELKVLQKIERDAKRK | not soluble
16 | HSHSDKHPVTWQPSKDGDRLIGRILLNKRLKDGSVPRDSGAMLGLKVVGGKMTESGRLCAFITKVKKGSLADTVGHLRPGDEVLEWNGRLLQGATFEEVYNIILESKPEPQVELVVSR | soluble
17 | HVFVVDFNGSIDAKEVSSLREEVSAILSVAKPEDEVFVRLESGGGMVHGYGLASSQLDRIRQHNIPLTVSVDKVAASGGYMMACVANNIISAPFAILGSIGVIAQVPNFNKLLKKHDIDFEQFTAGEFKRTVTMFGENTEKGKEKFIEELEETHVLFKNFVSERRPSLDIVKVATGEHWFGTTALELGLVDSIQTSDD | not soluble
18 | IASPQAGMAALTGTLAGTRQGMISFTQQNEQEADRIGIQVLQRAGFDPQAMPSFLEKLLDQARYSTRPPEILLTHPLPESRLADARNRANQMRPVVVQSSADFYFAKARALGMYNSGRNQLTSDLLDQWSKGNVHQQHAAQYGRALQAMEASKYDEARKTLQPLLSAEPNNAWYLDLATDIDLGQKRANDAINRLKNARDLRVNPVLQLNLANAYLQGGQPKAAETILNRYTFSHKDDGNGWDLLAQAEAALNNRDQELAARAESYALAGRLDQAISLLSSASAQAKLGCQQQARYDARIDQLRQLQERFKPYTK | not soluble
19 | ICMNVENKVTHKPLEFNYTDKYCGNVKNLISCKLYQHALTLIDSFRKDKTI | not soluble
20 | IEKSTQYMAKRRIGALISVARDTGMDDYIETGIPLNAKISSQLLINIFIPNTPLHDGAVIIKGNEIASAASYLPLSDSPFLSKELGTRHRAALGISEVTDSITIVVSEETGGISLTKGGELF | not soluble
21 | IGDFEYYIDGMLTFNTNKITEMDELTPDYAYQARTGNRIDQSQLLIWKQWASNPDLIPESYEDAVANPQKYPWNAAGKYKLGNAVFQDTNGDRKIDSYDKVPTGYTNIPELIPTIRLGFSWKGFDARAVLTAYLNRTVPCRENMDYGFGWGGTSTHEITNTWGYYTDDPTDPRNINAKYPRLSTSFSDLDRNYPYNESTIWVVNGDFLSLRNVEVGYSLPARLISKVNMTKCRLYFSGYNLCNWSHLPKGFDPENPTNYIWAYPKTRSFTFGVNIGF | not soluble
22 | IGEFSYHVNGNFSIIKNKVISLGVGDVEQKSGMIGNGSDLFLGYPMNMFYGYKTDGVFLTDDEVKEWHDQSKIAPNSKAGDLRYVDISGDGKVDESDKTYLGSKIPQYTFGLGLGAEYKGFDFNILLQGVAKVKGQLTNYAGYAFFQEGNIQKWQAEETWTNNQSNRYPKYPRLEVMSNAGSNNTLGSDFWILDASYLKVRNIQLGYTLPKRITQKFGSSNLRFYISLDNPFSISGYRKGWDPEINTDGSYYPILSTYTFGLTLKF | not soluble
23 | IGEVSYGAKFVLSDDQQKILRYPNDSYDVGSYYKGEHLNDIWGLTTIGIAKSQEEMDAHLAKVDQSSVGTNWGVGDIMYADLDGDGKISNGTNKLGDTGDYRIIGNSTPRFKYGITLDAAWKGFDFSIFMQGIGKRDLWLDGCYFWGANGQGNEWQSTGFAEHWDFFRPEGDPLGANLNSYYPRVNFSGDRNTKVQTRYLQNGAYLRLKNVQLGYTLPRVWTEKAGISSVRVYVSGDNLATITSLSKIFDPEATGSLAGTGSGKLYPLQRVISVGVNVNF | not soluble
24 | IHFTTEVITSRIEPANRYVAEKLRITPGQDILYLERLRSIGDEKAMLIENRINIELCPGIVEIDFNQHNLFPTIESLSKRKIRYSESRYAARLIGNERGHFLDISEDAPVLHLEQLVFFSRELPVEFGNVWLKG | not soluble
25 | IHPVDSSERVLILGAGRTAEALVRDMRRTGAFVPVGFIDDAVYLRGAKIQGLNVLGRLEEVSTIARETAAKLLVIAIPSLDAAGMQRVVAMCESTGLPFRMVPKLIDVLEGRTLPCQLKEVSIEDLLNRKPVIPDWRLIRSWLSG | not soluble
26 | IIEEEQQSLTGRLNIAVLPTIAPYLLPRVFPIWKKELAGLEIHVSEMQTSRCLASLLSGEIDMAIIASKAETEGLEDDLLYYEEFLGYVSRCEPLFEQDVIRTTEVNPHRLWLLDEGHCFRDQLVRFCQMKGLHERQTAYSGGSMEAFMRLVESGQGITFIPQLTVEQLSPSQKELVRPFGMPRPVREVRLAVRQDYSRRKLREQLIGLLRSAVPSDMHKLQTGQHLAHHHH | soluble
27 | IIHREYPRHHVLHRFTPASKPNGKKILITHGWMSRAAYMVRLIRLLHKEGYEVYAIDFPAHGEAKGIQLPWTDAIAIIKETINQFGPFYGLVGHSFGGSMILNTLNLAGQLPEWQLNHKPERAILIASPTQMRTPVNKIARRFKLSGQAYLQLRQLIRQQASVDPERIRLSHFISQAPDTYFLCIHGELDATINPKESINFCKYYKNARLSLLPDADHVSVLMDERVEQIALDFLNR | not soluble
28 | IKNDGLKLDAYYLPAGKATNKTVIIIHGFRRNKTGMKAYTDMFANLGYNTLTVDNRGHGKSQGHYVGFGWLDKGDVEAWIRYLISKNKNVEIVPFGISMGGATVAMMSGDSLPSNVKALIEDSGYTSVEAEITYEAKAMYNLPQKPFVSTVSLISKLFAGYSYTEASSIKQVEKNTRPMLFMHGGADSYVPTKMVYQLYNADKDPEKQLWIAPNSGHVQGFGDHPSAYTAQIKKFLNLYFK | not soluble
